Assay results as given in patent publication US7008922 (RIJKSUNIVERSITEIT TE LEIDEN, dated 2006).

Target: purified HLA-B7 (human)
Test: competition with iodinated … for purified HLA-B7

Row | Binder | IC50 [µM]
1 | SPAVDKAQAEL (Synthetic, HPLC-purified peptide; Differs from the SMCY peptide by A for S at position 3 and Q for R at position 8; also called peptide derived from the X chromosomal homolog SMCX (XE169)) [SMCX peptide SPAVDKAQAEL] | 0.14
2 | SPSVDKARAEL (also called H-Y peptide; peptide 1171) [SMCY peptide SPSVDKARAEL] | 0.034
